In assay [1] the target is T1, Extracellular IL-6R (interleukin-6 receptor) (UniProt P08887 20-365).
T1 construct: also called soluble extracellular IL-6R; source: bought: PeproTech
T1 sequence: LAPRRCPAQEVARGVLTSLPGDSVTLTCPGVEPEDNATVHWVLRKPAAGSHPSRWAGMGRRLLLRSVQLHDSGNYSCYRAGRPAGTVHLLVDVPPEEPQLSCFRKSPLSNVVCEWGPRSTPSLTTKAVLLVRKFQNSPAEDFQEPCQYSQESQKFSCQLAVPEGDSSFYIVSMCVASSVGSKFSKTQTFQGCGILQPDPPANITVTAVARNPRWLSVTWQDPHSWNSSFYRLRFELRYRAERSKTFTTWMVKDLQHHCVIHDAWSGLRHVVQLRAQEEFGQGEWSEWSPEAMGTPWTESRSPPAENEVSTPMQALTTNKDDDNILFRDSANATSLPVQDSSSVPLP
Nature of the assay: ELISA; competitive inhibition: 45 nM biotinylated IL-6 and 1 nM-2 μM protein/peptide with IL-6R coated beads (350 nM) in PBS-BSA, 25°C, 1 h; detected with SA-HRP. As to conditions: both partners purified. On the technique in general: In an ELISA, binding on a coated surface is turned into a signal by an enzyme label.

The target of assay [2] is T1, Extracellular IL-6R (interleukin-6 …). Briefly: cell-based or functional assay.
For assay [3] the target is unchanged. Nature of the assay: ELISA; […] (200 nM), 30 min; […]. Conditions: both partners purified.
The target of assay [4] is Extracellular IL-6R (interleukin-6 receptor) (UniProt P08887).

Bridges are numbered along the chain shown (N, C = ends). Where no end group is shown, it is not given here.

B1: R10-13 (designed binder)
chain: LVCYQLLACRPGTLETCPDDFTCVATRHTLGHNLTQYCSHAHAIPTPRARTGCCQTDKCNG
A word on the IC50: it is the midpoint of a concentration-inhibition curve. Higher therefore signals weaker potency in that assay. Usually Kd stands for the concentration at which binding is half-saturated. Lower therefore signals a tighter complex. As for B1, the IC50 in assay [1] turned out to be 113 ± 7 nM. The “IC50, inhibition of the IL-6 dependent proliferation of DS-1 cells (IL-6 with IL-6R)” value in assay [2] is 1400 nM. The molecule also gave a Kd in assay [3] of 48 ± 8 nM.

In assay [4], LVCYAPLPYTPGTLETGPDDFTCV (disulfide 3-23) [14-L1] yielded an EC50 (ED50), proliferation of DS-1 cells in the absence of IL-6 of 30 nM.

B2: R10-15 (designed binder)
chain: LVCYQLLACRPGTLETCPDDFTCVATRHTLGHNLTQYCSHAYAIPACETPASCCQTDKCNG
B2 came in with an IC50 in assay [1] of 102 ± 13 nM. Further, the Kd in assay [3] turned out to be 115 ± 9 nM.

The record behind these values is paper PMC3024951 (Molecular Brain, 2011).
